# Experimental data from publication PMC4132743 (Nucleic Acids Research, 2014).
# Target: T1, DnaT Y127A/W128A (Escherichia coli K12, UniProt P0A8J2 1-179, Y127A;W128A)
# T1 sequence: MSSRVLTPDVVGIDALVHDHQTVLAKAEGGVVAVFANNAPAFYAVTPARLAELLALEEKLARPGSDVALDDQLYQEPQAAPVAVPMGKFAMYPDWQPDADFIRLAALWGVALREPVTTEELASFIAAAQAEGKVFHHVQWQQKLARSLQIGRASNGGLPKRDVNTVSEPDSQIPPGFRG
# Assay: fluorescence polarization; almost no detectable binding; Buffer A: 20 mM Tris-HCl pH 7.5, 40 mM NaCl, 5% v/v glycerol, 20 C; FPA 200 nM 5'-FAM DNA, Hill fit; EMSA 30 min at 20 C, gels in 0.5x TBE at 4 C
# Conditions: protein: recombinant; tags: His-MBP removed by TEV; label: 5'-FAM
binder,measurement,value
TTTTTTTTTTTTTTTTTTTTTTTTTTTTTT (ssDNA) [5F-dT30],binding result,no binding
